T1: EsCas13d, nuclease-dead (Eubacterium siraeum, UniProt B0MS50, R295A;H300A;R849A;H854A)
T1 sequence: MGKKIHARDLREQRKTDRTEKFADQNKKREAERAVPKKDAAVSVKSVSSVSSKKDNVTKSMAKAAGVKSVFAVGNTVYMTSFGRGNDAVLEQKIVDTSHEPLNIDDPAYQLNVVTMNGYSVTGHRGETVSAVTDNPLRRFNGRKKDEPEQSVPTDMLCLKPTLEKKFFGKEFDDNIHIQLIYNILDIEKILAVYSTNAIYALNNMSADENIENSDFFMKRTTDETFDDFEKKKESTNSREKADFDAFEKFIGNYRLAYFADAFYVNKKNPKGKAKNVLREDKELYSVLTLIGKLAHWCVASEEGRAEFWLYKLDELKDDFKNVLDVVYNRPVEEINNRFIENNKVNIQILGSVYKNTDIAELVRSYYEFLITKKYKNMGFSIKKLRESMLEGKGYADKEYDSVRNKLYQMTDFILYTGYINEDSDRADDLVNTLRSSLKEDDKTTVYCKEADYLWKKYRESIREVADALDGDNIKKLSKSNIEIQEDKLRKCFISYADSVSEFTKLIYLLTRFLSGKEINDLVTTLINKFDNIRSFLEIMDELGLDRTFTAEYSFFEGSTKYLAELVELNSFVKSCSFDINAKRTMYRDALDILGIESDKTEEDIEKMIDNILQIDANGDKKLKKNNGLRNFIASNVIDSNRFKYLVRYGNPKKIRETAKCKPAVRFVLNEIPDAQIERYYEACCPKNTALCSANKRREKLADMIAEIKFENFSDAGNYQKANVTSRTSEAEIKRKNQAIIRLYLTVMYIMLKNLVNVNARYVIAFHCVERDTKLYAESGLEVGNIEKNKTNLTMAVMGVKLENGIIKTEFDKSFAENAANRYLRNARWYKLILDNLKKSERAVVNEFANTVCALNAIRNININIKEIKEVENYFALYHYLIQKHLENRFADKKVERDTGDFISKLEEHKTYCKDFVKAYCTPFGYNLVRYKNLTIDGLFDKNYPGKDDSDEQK

B1: target 1 insU 3' of 2 (mixed)
RNA 1: CACCCGUGCAAAAAUGCAGGGGUCUAAAACUGAGCGGAUAACCUCUCUAUGG
RNA 2: GGGAAUGGAUCCACAUCUACGAAUUCGUACCAUAGAGAGGUUAUCCGCUCUACCGAGAUCGGAAGAGCACACGU
B2: target 1 insA 3' of 15,insG 3' of 4 (mixed)
RNA 1: CACCCGUGCAAAAAUGCAGGGGUCUAAAACUGAGCGGAUAACCUCUCUAUGG
RNA 2: GGGAAUGGAUCCACAUCUACGAAUUCGUACCAUAGAGAAGGUUAUCCGCGUCACCGAGAUCGGAAGAGCACACGU
B3: target 1 insC 3' of 22,insU 3' of 5 (mixed)
RNA 1: CACCCGUGCAAAAAUGCAGGGGUCUAAAACUGAGCGGAUAACCUCUCUAUGG
RNA 2: GGGAAUGGAUCCACAUCUACGAAUUCGUACCCAUAGAGAGGUUAUCCGUCUCACCGAGAUCGGAAGAGCACACGU
B4: target 1 insC 3' of 22,insA 3' of 4 (mixed)
RNA 1: CACCCGUGCAAAAAUGCAGGGGUCUAAAACUGAGCGGAUAACCUCUCUAUGG
RNA 2: GGGAAUGGAUCCACAUCUACGAAUUCGUACCCAUAGAGAGGUUAUCCGCAUCACCGAGAUCGGAAGAGCACACGU
B5: target 1 insA 3' of 13,insU 3' of 1 (mixed)
RNA 1: CACCCGUGCAAAAAUGCAGGGGUCUAAAACUGAGCGGAUAACCUCUCUAUGG
RNA 2: GGGAAUGGAUCCACAUCUACGAAUUCGUACCAUAGAGAGAGUUAUCCGCUCAUCCGAGAUCGGAAGAGCACACGU
B6: target 1 insG 3' of 10,insA 3' of 8 (mixed)
RNA 1: CACCCGUGCAAAAAUGCAGGGGUCUAAAACUGAGCGGAUAACCUCUCUAUGG
RNA 2: GGGAAUGGAUCCACAUCUACGAAUUCGUACCAUAGAGAGGUUGAUACCGCUCACCGAGAUCGGAAGAGCACACGU
B7: target 1 insC 3' of 9,insG 3' of 1 (mixed)
RNA 1: CACCCGUGCAAAAAUGCAGGGGUCUAAAACUGAGCGGAUAACCUCUCUAUGG
RNA 2: GGGAAUGGAUCCACAUCUACGAAUUCGUACCAUAGAGAGGUUACUCCGCUCAGCCGAGAUCGGAAGAGCACACGU
B8: target 1 insU 3' of 14,insU 3' of 4 (mixed)
RNA 1: CACCCGUGCAAAAAUGCAGGGGUCUAAAACUGAGCGGAUAACCUCUCUAUGG
RNA 2: GGGAAUGGAUCCACAUCUACGAAUUCGUACCAUAGAGAUGGUUAUCCGCUUCACCGAGAUCGGAAGAGCACACGU
B9: target 1 insC 3' of 10,insU 3' of 6 (mixed)
RNA 1: CACCCGUGCAAAAAUGCAGGGGUCUAAAACUGAGCGGAUAACCUCUCUAUGG
RNA 2: GGGAAUGGAUCCACAUCUACGAAUUCGUACCAUAGAGAGGUUCAUCCUGCUCACCGAGAUCGGAAGAGCACACGU
B10: target 1 G13A,G15A (mixed)
RNA 1: CACCCGUGCAAAAAUGCAGGGGUCUAAAACUGAGCGGAUAACCUCUCUAUGG
RNA 2: GGGAAUGGAUCCACAUCUACGAAUUCGUACCAUAGAAAAGUUAUCCGCUCACCGAGAUCGGAAGAGCACACGU
B11: target 1 insU 3' of 22,insG 3' of 8 (mixed)
RNA 1: CACCCGUGCAAAAAUGCAGGGGUCUAAAACUGAGCGGAUAACCUCUCUAUGG
RNA 2: GGGAAUGGAUCCACAUCUACGAAUUCGUACUCAUAGAGAGGUUAUGCCGCUCACCGAGAUCGGAAGAGCACACGU
B12: target 1 G5A,G12C (mixed)
RNA 1: CACCCGUGCAAAAAUGCAGGGGUCUAAAACUGAGCGGAUAACCUCUCUAUGG
RNA 2: GGGAAUGGAUCCACAUCUACGAAUUCGUACCAUAGAGAGCUUAUCCACUCACCGAGAUCGGAAGAGCACACGU
B13: target 1 insG 3' of 8,insU 3' of 1 (mixed)
RNA 1: CACCCGUGCAAAAAUGCAGGGGUCUAAAACUGAGCGGAUAACCUCUCUAUGG
RNA 2: GGGAAUGGAUCCACAUCUACGAAUUCGUACCAUAGAGAGGUUAUGCCGCUCAUCCGAGAUCGGAAGAGCACACGU
B14: target 1 insG 3' of 11,insG 3' of 11 (mixed)
RNA 1: CACCCGUGCAAAAAUGCAGGGGUCUAAAACUGAGCGGAUAACCUCUCUAUGG
RNA 2: GGGAAUGGAUCCACAUCUACGAAUUCGUACCAUAGAGAGGUGGUAUCCGCUCACCGAGAUCGGAAGAGCACACGU
B15: target 1 insA 3' of 13,insG 3' of 1 (mixed)
RNA 1: CACCCGUGCAAAAAUGCAGGGGUCUAAAACUGAGCGGAUAACCUCUCUAUGG
RNA 2: GGGAAUGGAUCCACAUCUACGAAUUCGUACCAUAGAGAGAGUUAUCCGCUCAGCCGAGAUCGGAAGAGCACACGU
B16: target 1 insU 3' of 18,insU 3' of 9 (mixed)
RNA 1: CACCCGUGCAAAAAUGCAGGGGUCUAAAACUGAGCGGAUAACCUCUCUAUGG
RNA 2: GGGAAUGGAUCCACAUCUACGAAUUCGUACCAUAUGAGAGGUUAUUCCGCUCACCGAGAUCGGAAGAGCACACGU
B17: target 1 complement block 6-13 (mixed)
RNA 1: CACCCGUGCAAAAAUGCAGGGGUCUAAAACUGAGCGGAUAACCUCUCUAUGG
RNA 2: GGGAAUGGAUCCACAUCUACGAAUUCGUACCAUAGAGACCAAUAGGGCUCACCGAGAUCGGAAGAGCACACGU
B18: target 1 C6A,U11A (mixed)
RNA 1: CACCCGUGCAAAAAUGCAGGGGUCUAAAACUGAGCGGAUAACCUCUCUAUGG
RNA 2: GGGAAUGGAUCCACAUCUACGAAUUCGUACCAUAGAGAGGAUAUCAGCUCACCGAGAUCGGAAGAGCACACGU
B19: target 1 del8,del14 (mixed)
RNA 1: CACCCGUGCAAAAAUGCAGGGGUCUAAAACUGAGCGGAUAACCUCUCUAUGG
RNA 2: GGGAAUGGAUCCACAUCUACGAAUUCGUACCAUAGAGGGUUACCGCUCACCGAGAUCGGAAGAGCACACGU
B20: target 1 insA 3' of 22,insC 3' of 17 (mixed)
RNA 1: CACCCGUGCAAAAAUGCAGGGGUCUAAAACUGAGCGGAUAACCUCUCUAUGG
RNA 2: GGGAAUGGAUCCACAUCUACGAAUUCGUACACAUAGCAGAGGUUAUCCGCUCACCGAGAUCGGAAGAGCACACGU
B21: target 1 A1G,G17A (mixed)
RNA 1: CACCCGUGCAAAAAUGCAGGGGUCUAAAACUGAGCGGAUAACCUCUCUAUGG
RNA 2: GGGAAUGGAUCCACAUCUACGAAUUCGUACCAUAAAGAGGUUAUCCGCUCGCCGAGAUCGGAAGAGCACACGU
B22: target 1 G17A (mixed)
RNA 1: CACCCGUGCAAAAAUGCAGGGGUCUAAAACUGAGCGGAUAACCUCUCUAUGG
RNA 2: GGGAAUGGAUCCACAUCUACGAAUUCGUACCAUAAAGAGGUUAUCCGCUCACCGAGAUCGGAAGAGCACACGU
B23: target 1 A1C,G17A (mixed)
RNA 1: CACCCGUGCAAAAAUGCAGGGGUCUAAAACUGAGCGGAUAACCUCUCUAUGG
RNA 2: GGGAAUGGAUCCACAUCUACGAAUUCGUACCAUAAAGAGGUUAUCCGCUCCCCGAGAUCGGAAGAGCACACGU
B24: target 1 C7U,G15U (mixed)
RNA 1: CACCCGUGCAAAAAUGCAGGGGUCUAAAACUGAGCGGAUAACCUCUCUAUGG
RNA 2: GGGAAUGGAUCCACAUCUACGAAUUCGUACCAUAGAUAGGUUAUUCGCUCACCGAGAUCGGAAGAGCACACGU

The binders below were run against T1, EsCas13d, nuclease-dead (assay: crRNA (strand 1, pre-loaded); Mg2+; 40 mM Tris-HCl pH 7.5, 150 mM NaCl, 6 mM MgCl2, 1 mM DTT, 0.1% Tween-20, 0.2 mg/ml BSA; 25 C; 10 min per concentration, then washed). Settings: tags: His6-TwinStrep-SUMO cleaved; N-terminal SNAP kept (SNAP-Surface 488); label: 3' end held by stalled T7 RNA polymerase.

Going from B1 to B2, the Kd falls from 9.7 ± 0.8 nM to 6.4 ± 0.6 nM (1.5-fold).

First: B3
Second: B4
The Kd of the first is 1.5-fold higher: 24.3 ± 3.1 nM for the first, 15.9 ± 3.1 nM for the second.

Compared with B5, B6 is 6-fold higher in Kd: 3.62 ± 0.33 nM for the first, 21.6 ± 1 nM for the second.

Compared with B7, B8 is 5.2-fold higher in Kd: 12.2 ± 1.2 nM for the first, 63 ± 13 nM for the second. The first binds more tightly here.

Going from B9 to B10, the Kd falls from 46 ± 5 nM to 10.3 ± 0.8 nM (4.5-fold).

First: B11
Second: B12
The Kd of the first is 3.6-fold higher: 49 ± 4 nM for the first, 13.5 ± 0.5 nM for the second. The second binds more tightly here.

Going from B13 to B14, the Kd rises from 12.6 ± 0.9 nM to 86 ± 26 nM (6.8-fold). The first binds more tightly here.

Compared with B15, B16 is 16-fold higher in Kd: 3.08 ± 0.21 nM for the first, 49 ± 8 nM for the second.

First: B17
Second: B18
The Kd of the first is 3.3-fold higher: 92 ± 15 nM for the first, 28.1 ± 1.7 nM for the second. The second binds more tightly here.

B19 and B20 are within error of each other in Kd: 34.1 ± 2.7 nM for the first, 47 ± 19 nM for the second.

B21 and B22 are within 1.5-fold of each other in Kd: 41 ± 8 nM for the first, 27.4 ± 1.7 nM for the second.

Going from B23 to B24, the Kd falls from ~45 nM to 13.1 ± 1 nM (3.4-fold).

Source: article PMC10786891, “Massively parallel profiling of RNA-targeting CRISPR-Cas13d”
